Source: article PMC9636964 (Proceedings of the National Academy of Sciences of the …, 2022)
One block for each binder: values may come before it.

Experiments:
[1] = molecular target: T1, G3BP1 NTF2L (nuclear transport factor 2-like domain of Ras-GTPase-activating protein binding protein (human, UniProt Q13283 1-139)); test: NMR titration
[2] = molecular target: T1, G3BP1 NTF2L (nuclear transport factor …); test: ITC

T1 sequence (Q13283 1-139): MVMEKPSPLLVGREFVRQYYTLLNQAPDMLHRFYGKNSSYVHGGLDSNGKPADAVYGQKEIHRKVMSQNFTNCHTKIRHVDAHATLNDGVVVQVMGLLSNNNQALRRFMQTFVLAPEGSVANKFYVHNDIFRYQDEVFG

binding result [1]: binds
B1: Caprin-1(330-432) (domain or fragment)
chain: QPQAASPSVPEPHSLTPVAQADPLVRRQRVQDLMAQMQGPYNFIQDSMLDFENQTLDPAIVSAQPMNPTQNMDMPQLVCPPVHSESRLAQPNQVPVQPEATQV
modifications: 15N-labeled

Kd [2]: 1.3 µM
B2: Caprin-1(347-386) peptide (peptide)
peptide: VAQADPLVRRQRVQDLMAQMQGPYNFIQDSMLDFENQTLD
